Source: patent US20260374828

Biological target: Keap1 Kelch domain, Q14145
Assay: other TR-FRET
Conditions: modification not given

Keap1 Kelch domain, Q14145, sequence (Q14145 whole entry, the tested form may be a part): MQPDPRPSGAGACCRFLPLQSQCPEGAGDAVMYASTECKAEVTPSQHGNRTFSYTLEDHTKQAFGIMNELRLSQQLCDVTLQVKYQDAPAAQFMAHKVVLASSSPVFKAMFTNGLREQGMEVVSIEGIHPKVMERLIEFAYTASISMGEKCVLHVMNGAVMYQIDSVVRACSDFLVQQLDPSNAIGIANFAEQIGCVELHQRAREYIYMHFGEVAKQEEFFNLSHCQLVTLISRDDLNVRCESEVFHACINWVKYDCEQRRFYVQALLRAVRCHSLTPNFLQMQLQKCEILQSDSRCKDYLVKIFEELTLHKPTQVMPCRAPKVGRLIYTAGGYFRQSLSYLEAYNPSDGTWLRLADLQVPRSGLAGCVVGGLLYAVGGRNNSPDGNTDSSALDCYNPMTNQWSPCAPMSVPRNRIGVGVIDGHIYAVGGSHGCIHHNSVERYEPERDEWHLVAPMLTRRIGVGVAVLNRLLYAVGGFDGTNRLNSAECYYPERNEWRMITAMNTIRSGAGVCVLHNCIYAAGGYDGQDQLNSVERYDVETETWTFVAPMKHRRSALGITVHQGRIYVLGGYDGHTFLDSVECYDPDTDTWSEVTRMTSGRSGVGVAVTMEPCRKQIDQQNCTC

**Q.** For DELEPLTGFRR [Peptide 1-7], which IC50 is on record?
**A.** 6.2 nM

**Q.** For RRDELEPLTGFRR [Peptide 1-3], which IC50 is on record?
**A.** 38.8 nM

**Q.** How did the IC50 turn out when RDELEPLTGFRRR [Peptide 1-9] was run?
**A.** 14.7 nM

**Q.** How did the IC50 turn out when DELEPLTGFRRR [Peptide 1-8] was run?
**A.** 40.4 nM
